From paper PMC10456876 (2023)

Target: human telomeric nucleosome core particle (teloNCP) (human, UniProt P68431 1-136; P62805 1-103; P04908 1-130; P06899 1-124)
Assay: EMSA, concentration at 50% bound

- EC50: 37 nM
B1: wild-type MBP-tagged TRF1core (TRF1-TIN2-TPP1) (complex)
chain 1: MAEDVSSAAPSPRGCADGRDADPTEEQMAETERNDEEQFECQELLECQVQVGAPEEEEEEEEDAGLVAEAEAVAAGWMLDFLCLSLCRAFRDGRSEDFRRTRNSAEAIIHGLSSLTACQLRTIYICQFLTRIAAGKTLDAQFENDERITPLESALMIWGSIEKEHDKLHEEIQNLIKIQAIAVCMENGNFKEAEEVFERIFGDPNSHMPFKSKLLMIISQKDTFHSFFQHFSYNHMMEKIKSYVNYVLSEKSSTFLMKAAAKVVESKRTRTITSQDKPSGNDVEMETEANLDTRKSVSDKQSAVTESSEGTVSLLRSHKNLFLSKLQHGTQQQDLNKKERRVGTPQSTKKKKESRRATESRIPVSKSQPVTPEKHRARKRQAWLWEEDKNLRSGVRKYGEGNWSKILLHYKFNNRTSVMLKDRWRTMKKLKLISSDSED
chain 2: MATPLVAGPAALRFAAAASWQVVRGRCVEHFPRVLEFLRSLRAVAPGLVRYRHHERLCMGLKAKVVVELILQGRPWAQVLKALNHHFPESGPIVRDPKATKQDLRKILEAQETFYQQVKQLSEAPVDLASKLQELEQEYGEPFLAAMEKLLFEYLCQLEKALPTPQAQQLQDVLSWMQPGVSITSSLAWRQYGVDMGWLLPECSVTDSVNLAEPMEQNPPQQQRLALHNPLPKAKPGTHLPQGPSSRTHPEPLAGRHFNLAPLGRRRVQSQWASTRGGHKERPTVMLFPFRNLGSPTQVISKPESKEEHAIYTADLAMGTRAASTGKSKSPCQTLGGRALKENPVDLPATEQKENCLDCYMDPLRLSLLPPRARKPVCPPSLCSSVITIGDLVLDSDEEENGQGEGKESLENYQKTKFDTLIPTLCEYLPPSGHGAIPVSSCDCRDSSRPL
chain 3: MAGSGRLVLRPWIRELILGSETPSSPRAGQLLEVLQDAEAAVAGPSHAPDTSDVGATLLVSDGTHSVRCLVTREALDTSDWEEKEFGFRGTEGRLLLLQDCGVHVQVAEGGAPAEFYLQVDRFSLLPTEQPRLRVPGCNQDLDVQKKLYDCLEEHLSESTSSNAGLSLSQLLDEMREDQEHQGALVCLAESCLTLEGPCTAPPVTHWAASRCKATGEAVYTVPSSMLCISENDQLILSSLGPCQRTQGPELPPPDPALQDLSLTLIASPPSSPSSSGTPALPGHMSSEESGTSISLLPALSLAAPDPGQRSSSQPSPAICSAPATLTPRSPHASRTPSSPLQSCTPSLSPRSHVPSPHQALVTRPQKPSLEFKEFVGLPCKNRPPFPRTGATRGAQEPCSVWEPPKRHRDGSAFQYEYEPPCTSLCARVQAVRLPPQLMAWALHFLMDAQPGSEPTPM
modifications: phosphoserine at 434, 435 and 437 (reported for the purified TRF1core sample from Sf9)
